# Laboratory results: publication PMC11322666, “UPF3B modulates endoplasmic reticulum stress through interaction with inositol-requiring enzyme-1α” (Cell Death & Disease, 2024)
# Tests used:
# IRE1α^S724A = target: T1, IRE1α^S724A (human, UniProt O75460 19-977, S724A); experiment: co-IP; lysates of transfected HEK293T or U2OS cells (24 h) in NETN buffer (20 mM Tris-HCl pH 8.0, 100 mM NaCl, 1 mM EDTA, 0.5% NP-40), IP with anti-Flag (M2) magnetic beads or the indicated antibodies, western blot; Fig. 3G two-way; details: partners not purified
# T1 construct: IRE1α, human, point mutant; source: HEK293T and U2OS, transfected, in lysate
# T1 sequence (O75460 19-977 S724A): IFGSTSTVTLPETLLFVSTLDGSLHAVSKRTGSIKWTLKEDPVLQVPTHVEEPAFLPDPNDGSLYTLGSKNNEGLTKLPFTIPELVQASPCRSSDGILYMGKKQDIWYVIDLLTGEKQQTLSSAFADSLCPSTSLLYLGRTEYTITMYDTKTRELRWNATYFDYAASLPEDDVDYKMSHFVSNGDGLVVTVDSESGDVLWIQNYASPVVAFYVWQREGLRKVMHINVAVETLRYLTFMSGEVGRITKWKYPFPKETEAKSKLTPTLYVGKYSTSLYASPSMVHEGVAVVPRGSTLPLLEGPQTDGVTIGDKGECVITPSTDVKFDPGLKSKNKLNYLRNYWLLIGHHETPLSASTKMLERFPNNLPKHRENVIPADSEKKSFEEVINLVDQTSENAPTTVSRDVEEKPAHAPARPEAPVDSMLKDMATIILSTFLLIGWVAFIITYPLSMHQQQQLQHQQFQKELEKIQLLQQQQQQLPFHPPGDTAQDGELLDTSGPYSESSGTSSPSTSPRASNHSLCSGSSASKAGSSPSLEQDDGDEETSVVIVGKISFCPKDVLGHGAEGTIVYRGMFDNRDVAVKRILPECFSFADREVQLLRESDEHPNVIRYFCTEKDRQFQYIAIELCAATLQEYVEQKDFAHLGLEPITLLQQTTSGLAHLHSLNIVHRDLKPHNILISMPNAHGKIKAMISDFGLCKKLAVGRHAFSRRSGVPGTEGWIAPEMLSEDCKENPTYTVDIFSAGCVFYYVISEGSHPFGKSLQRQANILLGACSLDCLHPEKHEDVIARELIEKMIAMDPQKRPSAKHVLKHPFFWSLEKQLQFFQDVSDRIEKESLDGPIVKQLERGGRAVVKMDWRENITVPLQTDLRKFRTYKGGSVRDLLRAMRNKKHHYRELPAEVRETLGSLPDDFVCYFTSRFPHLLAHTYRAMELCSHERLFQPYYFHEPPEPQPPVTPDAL
# [1] = target: T2, inositol-requiring enzyme-1α (IRE1α), endogenous (human (endogenous in HEK293T and U2OS), UniProt O75460 19-977); experiment: co-IP; endogenous proteins, lysates of HEK293T and U2OS cells, IP with the indicated antibodies (anti-IRE1α), IgG as negative control; also with RNase A pre-treatment of lysates, in shUPF1 and shUPF2 cells, after STF-083010 or Kira6 (10 or 50 μM, 6 h), BiP overexpression, siBiP, UPF3B overexpression; details: partners not purified
# T2 construct: inositol-requiring enzyme-1α (IRE1α), endogenous in HEK293T and U2OS cells; source: endogenous, HEK293T and U2OS lysates
# T2 sequence (O75460 19-977): as the sequence (O75460 19-977 S724A) above, with A706S counted along it
binder,measurement,setting,value
"UPF3B, endogenous (natural protein, human (endogenous in HEK293T and U2OS), UniProt Q9BZI7 1-483, looked up, UPF3B, endogenous in HEK293T and U2OS cells; also called up-frameshift 3B; source: endogenous, HEK293T and U2OS lysates) MKEEKEHRPKEKRVTLLTPAGATGSGGGTSGDSSKGEDKQDRNKEKKEALSKVVIRRLPPTLTKEQLQEHLQPMPEHDYFEFFSNDTSLYPHMYARAYINFKNQEDIILFRDRFDGYVFLDNKGQEYPAIVEFAPFQKAAKKKTKKRDTKVGTIDDDPEYRKFLESYATDNEKMTSTPETLLEEIEAKNRELIAKKTTPLLSFLKNKQRMREEKREERRRREIERKRQREEERRKWKEEEKRKRKDIEKLKKIDRIPERDKLKDEPKIKVHRFLLQAVNQKNLLKKPEKGDEKELDKREKAKKLDKENLSDERASGQSCTLPKRSDSELKDEKPKRPEDESGRDYREREREYERDQERILRERERLKRQEEERRRQKERYEKEKTFKRKEEEMKKEKDTLRDKGKKAESTESIGSSEKTEKKEEVVKRDRIRNKDRPAMQLYQPGARSRNRLCPPDDSTKSGDSAAERKQESGISHRKEGGEE",fold change of the co-precipitate against IRE1α^WT,IRE1α^S724A,3.2 fold
same,fold change of the co-precipitate in Kira6-treated against control cells,[1],3.9 fold
